# Reference: article PMC5716094
# Read-outs that look alike come from different tables or passages of the source.
# T1: B-domain of TRF2 (human, UniProt Q15554 43-86)
# T1 chain: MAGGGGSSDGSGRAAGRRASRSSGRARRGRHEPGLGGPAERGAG
# B1: R2 duplex (dsDNA)
# DNA 1: GTTAGGGTTAGGGTTAG
# DNA 2: CTAACCCTAACCCTAAC
# B2: R5 duplex (dsDNA)
# DNA 1: GTTAGGGTTAGGGTTAGGGTTAGGGTTAGGGTTAG
# DNA 2: CTAACCCTAACCCTAACCCTAACCCTAACCCTAAC
# How the values were obtained:
# B-domain of TRF2 = molecular target: T1, B-domain of TRF2; test: SAXS
# ΔBTRF2 [1] = molecular target: T2, ΔBTRF2 (human, UniProt Q15554 87-542, del43-86); test: fluorescence anisotropy
# T2 sequence (Q15554 87-542, stated change not applied): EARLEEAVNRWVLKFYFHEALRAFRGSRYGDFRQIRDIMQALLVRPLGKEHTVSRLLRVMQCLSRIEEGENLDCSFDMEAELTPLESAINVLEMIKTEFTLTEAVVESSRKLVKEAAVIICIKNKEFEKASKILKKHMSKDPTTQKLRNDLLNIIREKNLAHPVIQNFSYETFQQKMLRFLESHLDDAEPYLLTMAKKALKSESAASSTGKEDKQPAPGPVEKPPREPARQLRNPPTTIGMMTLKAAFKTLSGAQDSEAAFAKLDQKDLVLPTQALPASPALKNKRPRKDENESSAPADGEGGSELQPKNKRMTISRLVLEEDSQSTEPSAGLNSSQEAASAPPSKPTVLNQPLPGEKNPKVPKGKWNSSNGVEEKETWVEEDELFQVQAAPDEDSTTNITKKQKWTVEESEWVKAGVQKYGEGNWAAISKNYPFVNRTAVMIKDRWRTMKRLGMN
# TRF2 [2] = molecular target: T3, TRF2 (human, UniProt Q15554 43-542); test: fluorescence anisotropy
# ΔBTRF2 [3] = molecular target: T2, ΔBTRF2; test: fluorescence anisotropy; remark: listed apart in the source
# TRF2 [4] = molecular target: T3, TRF2; test: fluorescence anisotropy; remark: listed apart in the source
Binder,binding result (B-domain of TRF2),binding result (ΔBTRF2 [1]),binding signal (TRF2 [2]) [fold lower Kd than ΔBTRF2],binding signal (ΔBTRF2 [3]) [fold higher Kd than TRF2],binding signal (TRF2 [4]) [fold lower Kd than ΔBTRF2]
B1,binds,binds,~2,,
B2,,,,~2,~2
